Molecular target: spGFP_(1-10/11)-MSP1D1
Test: SEC; purified scaffold protein without lipids; Superose 6 Increase 10/300 GL, 50 mM Tris-HCl pH 8, 100 mM NaCl, 5% glycerol; monomer (intramolecular complementation) against dimer (intermolecular complementation)

percent dimeric: 30%
stoichiometry N: 2
Substance: spGFP_(1-10/11)-MSP1D1
